Experimental data taken from US20040266694A1 (published 2004).

Key:
[1] = target: T1, Recombinant human Flt-1/Fc chimera (R&D Systems) (human, UniProt P17948-2 27-687, limits assumed); assay: phage ELISA on Flt-1/Fc captured by anti-Fc, anti-M13-HRP
[2] = target: T1, Recombinant human Flt-1/Fc chimera (R&D …); assay: competitive receptor binding assay on immobilized Flt-1/Fc; VEGF against 30 µM fluorescein labeled peptide (SEQ ID NO: 3)
Protocol: The cocktails were allowed to equilibrate for 4 hours at room temperature. After incubation, micrititer plates were washed with buffer B for 10 times. […] The results are represented as average of triplicate measurement ±SD.

[3] = target: T1, Recombinant human Flt-1/Fc chimera (R&D …); assay: receptor binding assay on immobilized Flt-1/Fc; reference: the peptide
[4] = target: T1, Recombinant human Flt-1/Fc chimera (R&D …); assay: receptor binding assay on immobilized Flt-1/Fc, bound peroxidase activity

T1 sequence (P17948 other isoform, or with tags, fused parts or gaps mutant limits assumed): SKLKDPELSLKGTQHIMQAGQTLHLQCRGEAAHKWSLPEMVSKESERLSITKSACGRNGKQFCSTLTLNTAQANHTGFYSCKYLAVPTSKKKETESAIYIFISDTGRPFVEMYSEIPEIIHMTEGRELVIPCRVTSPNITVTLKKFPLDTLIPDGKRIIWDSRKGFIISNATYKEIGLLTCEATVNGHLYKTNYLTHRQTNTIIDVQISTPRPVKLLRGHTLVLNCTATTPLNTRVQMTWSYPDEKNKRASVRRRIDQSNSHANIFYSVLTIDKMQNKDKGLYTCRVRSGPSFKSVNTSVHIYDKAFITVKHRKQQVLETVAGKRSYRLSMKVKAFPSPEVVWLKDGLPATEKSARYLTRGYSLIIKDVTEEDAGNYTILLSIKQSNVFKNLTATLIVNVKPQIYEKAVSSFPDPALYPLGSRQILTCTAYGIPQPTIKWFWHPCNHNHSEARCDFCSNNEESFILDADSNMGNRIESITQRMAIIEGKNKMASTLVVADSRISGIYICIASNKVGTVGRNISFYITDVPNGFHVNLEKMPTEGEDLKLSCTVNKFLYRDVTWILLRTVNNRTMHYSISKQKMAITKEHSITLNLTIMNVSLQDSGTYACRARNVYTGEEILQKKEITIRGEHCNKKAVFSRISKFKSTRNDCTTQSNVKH

B1: phage clone V40 (control peptide insert encoded by ONV40, SEQ ID NO: 11) (other, bacteriophage M13)
chain: FVGGWLVPEDERLYPEAETVESCLAKPHTENSFTNVWKDDKTLDRYANYEGCLWNATGVVVCTGDETQCYGTWVPIGLAIPENEGGGSEGGGSEGGGSEGGGTKPPEYGDTPIPGYTYINPLDGTYPPGTEQNPANPNPSLEESQPLNTFMFQNNRFRNRQGALTVYTGTVTQGTDPVKTYYQYTPVSSKAMYDAYWNGKFRDCAFHSGFNEDPFVCEYQGQSSDLPQPPVNAGGGSGGGSGGGSEGGGSEGGGSEGGGSEGGGSGGGSGSGDFDYEKMANANKGAMTENADENALQSDAKGKLDSVATDYGAAIDGFIGDVSGLANGNGATGDFAGSNSQMAQVGDGDNSPLMNNFRQYLPSLPQSVECRPFVFSAGKPYEFSIDCDKINLFRGVFAFLLYVATFMYVFSTFANILRNKES
notes: Clone label V40 tied to oligonucleotide ONV40 by its name only
In the case of B1, the “ABSORBANCE, A 405” value [1] is reported as 0.025 A405.

B2: human recombinant VEGF (R&D Systems) (ligand, UniProt P15692-4 27-191, looked up)
chain: APMAEGGGQNHHEVVKFMDVYQRSYCHPIETLVDIFQEYPDEIEYIFKPSCVPLMRCGGCCNDEGLECVPTEESNITMQIMRIKPHQGQHIGEMSFLQHNKCECRPKKDRARQENPCGPCSERRKHLFVQDPQTCKCSCKNTDSRCKARQLELNERTCRCDKPRR
notes: also called vascular endothelial factor
With B2 the IC50 [2] was 5 nM.

B3: phage clone V5.10 (control peptide insert encoded by ONV5.10, SEQ ID NO: 10) (other, bacteriophage M13)
chain: PEPEVRLSPPGHIQSLAETVESCLAKPHTENSFTNVWKDDKTLDRYANYEGCLWNATGVVVCTGDETQCYGTWVPIGLAIPENEGGGSEGGGSEGGGSEGGGTKPPEYGDTPIPGYTYINPLDGTYPPGTEQNPANPNPSLEESQPLNTFMFQNNRFRNRQGALTVYTGTVTQGTDPVKTYYQYTPVSSKAMYDAYWNGKFRDCAFHSGFNEDPFVCEYQGQSSDLPQPPVNAGGGSGGGSGGGSEGGGSEGGGSEGGGSEGGGSGGGSGSGDFDYEKMANANKGAMTENADENALQSDAKGKLDSVATDYGAAIDGFIGDVSGLANGNGATGDFAGSNSQMAQVGDGDNSPLMNNFRQYLPSLPQSVECRPFVFSAGKPYEFSIDCDKINLFRGVFAFLLYVATFMYVFSTFANILRNKES
notes: Clone label V5.10 tied to oligonucleotide ONV5.10 by its name only
For B3, the “ABSORBANCE, A 405” value [1] was 0.039 A405.

B4: Conjugate NO.: 1, peroxidase-peptide conjugate (other, horseradish)
chain: QLTPTFYDNSCPNVSNIVRDTIVNELRSDPRIAASILRLHFHDCFVNGCDASILLDNTTSFRTEKDAFGNANSARGFPVIDRMKAAVESACPRTVSCADLLTIAAQQSVTLAGGPSWRVPLGRRDSLQAFLDLANANLPAPFFTLPQLKDSFRNVGLNRSSDLVALSGGHTFGKNQCRFIMDRLYNFSNTGLPDPTLNTTYLQTLRGLCPLNGNLSALVDFDLRTPTIFDNKYYVNLEEQKGLIQSDQELFSSPNATDTIPLVRSFANSTQTFFNAFVEAMDRMGNITPLTGTQGQIRLNCRVVNSNS
peptide: CNGYEIEWYSWVTHGMY
modifications: C-terminal amide (NH2); Cys 1 disulfide-linked through SPDP to peroxidase; activated with SPDP (N-succinimidyl-3-(2-pyridylthio)propionate), disulfide-linked to the peptide
notes: also called Conjugate ID NO:1; Conjuguate ID NO 1
B4 was tested, and the “fold of half-maximum binding concentration against the peptide” value [3] was 50 fold and the EC50 [4] was 100 nM.
